Measured values: the nanobody polyreactivity screen of Harvey et al. (2022)

Assay: yeast display, Sf9 membrane polyspecificity reagent, FACS + sequencing; frameworks hold sequencing errors
Procedure, shortened: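 A nanobody's polyreactivity label depends on the gate it was sorted from. Yeast display cells were stained with 10% biotinylated, detergent-solubilized Sf9 membrane reagent for 1 hour at 4 °C, enriched on streptavidin microbeads and sorted by FACS. The low and high (top ~1%) gates were set on anti-HA fluorescence for expression and streptavidin fluorescence for reagent binding.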

Sequence | polyreactivity (PSR sort gate)
QVQLQESAGGRQPAPELRGERLYFWLLLMGWYRQAPGEERELVAGINYGASTNYSDSVKGRFTISRDNARNTVYLKMNSLKPGDTAVYYCAVWQPVLIWFYYWGQGTQVTVSS | high polyreactivity
QVQLVESGGGLVQAGGSLRISCAASGFIFGWYAMGWYRQAPGKERELVAVIRSGGRTNYADSVKGRFTISRDNAKNTVYLQMNSLKPEDTAVYYCNAVGGRGYGGGYWGQGTQVTVSS | high polyreactivity
QVQLVESGGGLVQAGGSLRLSCAASGSTFNSYVMGWYRQAPGQERELVAAITWSGGRTYYADSVKGRFTISRDNAKNTVYLQMNSLKPEDTAVYYCARKKRRGRDWGYDYWGQGTQVTVSS | high polyreactivity
QVQLVESRGGLVQAGGSLRLSCSASGFIRTYAMGWYRQAPAKERELVAAITSSGGRTNYADSVKGRFTISRDNAKNTVYLQMNSLKPEDTAVYYCAAGLGRYLRYNYWGQGTQVTVSS | high polyreactivity
QVQLVESGGGLVQAGGSLRLSCAASGSIFVVYAMGWYRQAPGKERELVAGISDGDNTNYADSVKGRFTISRDNAKNTVYLQMNSLKPEDTAVYYCNADGTSRNLEGFDYWGQGTQVTVSS | low polyreactivity
QVQLVESGGGLVQAGGSLRLSCAASGSIFYDYAMGWYRQAPGKERELVAAITASGGSTYYADSVKGRFTISRDNAKNTVYLQMNSLKPEDTAVYYCAAESESYEQVGEMDSWGQGTQVTVSS | low polyreactivity
QVQLVESGGGLVQAGGSLRLSCAASGGIFFRNDMGWYRQAPGKERELVAAISSNGGSTYYADSVKGRFTISRDNAKNTVYLQMNSLKPEDTAVYYCNTGVYSSGGPLDYWGQGTQVTVSS | low polyreactivity
QVQLVESGGGLVQAGGSLRLSCAASGSTFQYYAMGWYRQAPGKERELVAAITHSGTRTYYADSVKGRFTISRDNAKNTVYLQMNSLKPEDTAVYYCAARGYGKYDYWGQGTQVTVSS | high polyreactivity
QVQLVESGGGLVQAGGSLRLSCAASGRTFAAYDMGWYRQAPGKERELVAAITSGGSTNYADSVKGRFTISRDNAKNTVYLQMNSLKPEDTAVYYCNARFRKWPQARYGVRYYYWGQGTQVTVSS | high polyreactivity
QVQLVESGGGLVQAGGSLRLSCAASGRIFYYYAMGWSRQAPGKERELVAGISYSGGRTYYADSVKGRFTISRDNAKNTVYLQMNSLKPEDTAVYYCAAAYRGANYGYGFDYWGQGTQVTVSS | high polyreactivity
QVQLVESGGRLVQAGGSLRLSCAASGITFTAYAMGWYRPAPGKERELVATINSTGITNYADSVKGRFTISRDNAKNTVYLQMNSLKPEDTAVYYCAADLLDISSYDGMDYWGQGTQVTVSS | low polyreactivity
QVQLVESGGGLVQAGGSLRLSCAASGSILVAYAMGWYRQAPGKERELVAAITQGGGSTYYADSVKGRFTISRDNAKNTVYLQMNSLKPEDTAVYYCNVGANVYLLYFPSRGGVYDYGYWGKGTQVTVSS | low polyreactivity
QVQVVESGGGLVQAGGSLRLSCAASGRIFNRNAMGWYRQAPGKERELVAAITRGGRTNYADSVKGRFRISRDNAQNTVYLQMNSLKPEDTAVYYCAAAYYGSHGRYDYWGQGTQVTVSS | high polyreactivity
QVQLQESGGGLVQAGGSLCLSCAASGTIFFDGDMGWYRQAPGKEREFVAAINPGGSAYYADSVKGRLPLAAITHTVYLQMISLKPEDTAVYYCAAKLFDVYGYYYWGQGTHVTVSS | low polyreactivity
QVQLVESGGGLVQAGGSLRLSCAASGRIFHWYTMGWYRQAPGKEMELVAAISGSGGSTHYADSVKGRLTISRDNAKNTVYLQMNSLKPEDTAVYYCAAYIPVRYGTSDRGYWGQGTQVTVSS | low polyreactivity
QVHLVESGGGLVLAGGSLRLSCAASGRIFSFYAMGWYRQAPGKERELVAAISSGGNTYYADSLKGRFTISRDNAKNTVYLQMNSLKPEDTAVYYCATGYRNLSSRYGYWGQGTQVSVSS | high polyreactivity

Sequence | polyreactivity (PSR sort gate)
QVQLVESVGGLVQAGGSLRLSCAASGSIFRRYTMGWYRQAPGKERELFAAISRVGNTNYAHSVKGRFTISRDNAKNTVYLQMNSLKPEATAVYYCAARAIGYRYTPGLNYWGQGTQVTVSS | high polyreactivity
QVQVVESGGGLVQAGGSLRLSCAASGLIFVYYAMGWYRQAPGKERELVAGITRGGGTNYADSVKGRFTISRDNAKNSFYLQMNSLKPEDTAVYYCAADDLPGMDYWGQGTQVTVSS | low polyreactivity
QVQLVESGGGLVQAGGSLRLSCSASGRTFYRNAMGWYRQSPGKESEFVAVISVSGGSTYYADSVKGRFTISRDNAKNTVYLQMNSLKPEDTAVYYCAADEYYTFSCFELRRMDYWGQGTQVTVSS | low polyreactivity
QVQLVESGGGLVQAGGSLRLSCAASGSIFAVYAMGWYRQAPGKERELVASISRRGGSTYYADSVKGRFTISRDNAKNTVYLQMNSLKPEDTAVYYCAATGRRGYGYGYWGQGTQVTVSS | high polyreactivity
QVQLVESGGGLVQAGGSLRLSCAASGYIFAINAMGWYRQAPGKERELVAAIRSGGRTYYADSVKGRFTISRDKAKNTVYLQMNSLKPEDTAVYYCNAGGKWIGSDYWGQGTQVTVSS | high polyreactivity
QVQLVESGGSLVQAGGSLRLSCAASGYTIDSYGMGWYRQAPGKERELVAPIDWSGGSTYYADSVKGRFTIARDTAKNTVYLQKNSLIPDDSAVYYCNRDSAGPGDVILAYTGNDYWGQGTQVTVSS | low polyreactivity
QVQLVESGGGLVQAGGSLRLSCAASGRTFYRYAMGWYRQAPGKERELVAAITRRGDSTSYADSVKGRFTISRDNAKNTVYLQMNSLKPEDTAVYYCATLVQGSVYGLYGGGYWGQGTQVTVSS | low polyreactivity
QVQLVESGGGLVQAGGSLRLSCAASGSIFIGYAMGWYRQAPGKERELVAAITSGGSTYADSVKGRFTISRDNAKNTVYLQMNSLKPEDTAVYYCAAPRTYYSELTSPYDYWGQGTQVTVSS | low polyreactivity
QVHLVESGGGLVQAGGSLRISCAASGSTFYYYTMGWYRQAPGKERELVAISWDGDSTYYADSVKGRFTISRDNAKNTVYLQMNSLKPEDTAVYYFNAEYTWSGTKIYTYKYDFWGPGTQVTVSS | low polyreactivity
QVQLVESGGGLVQAGGSLRLSCDASGSTFDNYAMGWYRQAPGKERELVAAITTGVTTYYADSVKGRFTISRDNAKNTVYLQMNSLKPEDTAVYYCAADYVSYSQARHEYGYWGQGTQVTVSS | low polyreactivity
QVQLVESGGGLVQAGGSLRLSCAASGRIFTGNAMGWYRQAPGKERELVAAISRRGTRTYYADSVKGRFTISRDNAKNTVYLQMNSLKPEDTAVYYCATRPGYWRYEYWGQGTQVTVSS | high polyreactivity
QFQLVESGGGLVQAGGSLRLSCAASGRIFKTYTMGWYRQAPGKERELVAVITSGGGTYYADSVKGRFTISRDNAKNTVYLQMNSLKPEDTAVYYCAARGMESPYGYWGQGTQVTVSS | low polyreactivity
QVQLVESGGGLVQAGGSLRLSCAASGRIIIYKAMGWYRQAPGKERQLVAAINRSGVSTHYADSVKGRFTISRDNAKNTVYLQMNSLKPEDTAVYYCARTVYGARSYDYWGQGTQVTVSS | low polyreactivity
QVQLVETGGGLFQAGGSLRISCAASGSTFYTYAMGWYRQSPGKERELVAAITRRGGRTYYADSVKGRFTISRDNAKNTVYLQMNSLKPEDTAVYYCAADSRTNGYDYWGQGTQVTVSS | high polyreactivity
QVQLVESGGGLVQAGGSLRLSCAASGFIFNYYLGWYRQAPGKEREWVAAISQSGDSTYYADSVKGRFTISRDNAKNTVYLQMNSQKPEDTAVYYCAAETSPDYRGVTYYYWGQGTQVTLSS | high polyreactivity
QVQLVESGGGLVQAGGSLRLSCAASGRIFNTYAMGWYRQAPGKERELVAVISSRGGSTYYADSVKGRFTISRDNAKNTVYLQMNSLKPEDTAVYYCAARGRGQPFVRYDYWGQGTQVTVSS | high polyreactivity
